According to patent EP4711384A1 (WIO Bioscience Co., Ltd., dated 2026):
“And” between values parts separate entries of the source, which are not always exact repeats. Equal entries are not always repeated.

B1: Wio-02-23 (R1-F9-GGGGS-Rap-C10) (bispecific antibody)
chain: QVQLQESGGGSVQAGETLRLSCTASGFTVHDMGWYRQAPGNECELVSTISSDGSTYYADSVKGRFTISQDNAKNTVYLQMNSLKPEDTAVYYCAADHFTGLQLAECKADFGYWGQGTQVTVSSGGGGSQVQLQESGGGSVQPGGSLRLSCAASGFTYIPAYMGWFRQAPGKERERVASISSTDGSTTYADSVKGRFTVSQDTAKNTLYLQMNSLKPEDTAMYYCAAYQFGAFRVWGQGTQVTVSS
B2: Wio-02-29 (Rap-A10-GGGGS-R1-A12) (bispecific antibody)
chain: QVQLQESGGGLVQAGGSLKLSCAASGYTYGPYCMGWFRQFPGKEREGVAAVGGDGRTWYGNSVKGRFTISQDNAKKTLYLQINALKPEDTAMYYCAADFDRTVCSDDIYDYTYRGQGTQVTVSSGGGGSQVQLQESGGGPVQAGGSLRLSCSASTTAYDNACMGWFRQAPGKEREGVASIHLRDRTYYADSVKGRFTLSRDGASKTLYLQMNSLKPEDSGTYYCASSNICNGLNLQGNTYWGQGTQVTVSS
B3: Wio-02-30 (Rap-C10-GGGGS-R1-C10) (bispecific antibody)
chain: QVQLQESGGGSVQPGGSLRLSCAASGFTYIPAYMGWFRQAPGKERERVASISSTDGSTTYADSVKGRFTVSQDTAKNTLYLQMNSLKPEDTAMYYCAAYQFGAFRVWGQGTQVTVSSGGGGSQVQLQESGGGSVQAGETLRLSCTASGSTFDEYDMGWYRQAPGNKCELVSTISTIDGSTYYADSVKGRFTISQDNTKNTVYLQMNSLKPEDTGVYYCEADDRGTWDRGGCWGQGTQVTVSS
B4: Wio-02-31 (Rap-C10-GGGGS-R1-F9) (bispecific antibody)
chain: QVQLQESGGGSVQPGGSLRLSCAASGFTYIPAYMGWFRQAPGKERERVASISSTDGSTTYADSVKGRFTVSQDTAKNTLYLQMNSLKPEDTAMYYCAAYQFGAFRVWGQGTQVTVSSGGGGSQVQLQESGGGSVQAGETLRLSCTASGFTVHDMGWYRQAPGNECELVSTISSDGSTYYADSVKGRFTISQDNAKNTVYLQMNSLKPEDTAVYYCAADHFTGLQLAECKADFGYWGQGTQVTVSS
B5: Wio-02-44 (Rap-A10-GGGGS-R1-E12) (bispecific antibody)
chain: QVQLQESGGGLVQAGGSLKLSCAASGYTYGPYCMGWFRQFPGKEREGVAAVGGDGRTWYGNSVKGRFTISQDNAKKTLYLQINALKPEDTAMYYCAADFDRTVCSDDIYDYTYRGQGTQVTVSSGGGGSQVQLQESGGGSVQAGGSLRLSCVASGTTMSMNYMAWFRQAPGKEREGVASIFRSTHYADSVKGRFTIAEDSAKNTVYLQMNSLKPEDTAVYYCAAGRTKPYLTPLAESQYNYWGQGIQVTVSS
B6: Wio-02-03 (R1-C7-GGGGS-Rap-F11) (bispecific antibody)
chain: QVQLQESGGGPVQAEGSLRLSCTASGNLYRDPCMGWFRQAPGKDREGVAAMNTGADSTFYARSVKGRFTISHDNAKNTLYLQMNSVKPEDTAMYYCAASRYCTERTWTWRYDYDYWGQGTQVTVSSGSQVQLQESGGGSVQPGGSLRLSCAASGFTYIPAYMGWFRQAPGKERERVASIKTDGSTTYADSVNGRFTIAQDTAKNTLYLQMDSLKPEDTAMYYCAAYQFGAFRVWGQGTQVTVSS
B7: Wio-02-05 (R1-C7-GGGGS-Rap-C10) (bispecific antibody)
chain: QVQLQESGGGPVQAEGSLRLSCTASGNLYRDPCMGWFRQAPGKDREGVAAMNTGADSTFYARSVKGRFTISHDNAKNTLYLQMNSVKPEDTAMYYCAASRYCTERTWTWRYDYDYWGQGTQVTVSSGGGGSQVQLQESGGGSVQPGGSLRLSCAASGFTYIPAYMGWFRQAPGKERERVASISSTDGSTTYADSVKGRFTVSQDTAKNTLYLQMNSLKPEDTAMYYCAAYQFGAFRVWGQGTQVTVSS

What follows are binders tested against T1, human IL-18R1 ECD-His (human) (UniProt Q13478) (assay: sandwich ELISA, IL-18RAP ECD-hFc detection).
T1 sequence: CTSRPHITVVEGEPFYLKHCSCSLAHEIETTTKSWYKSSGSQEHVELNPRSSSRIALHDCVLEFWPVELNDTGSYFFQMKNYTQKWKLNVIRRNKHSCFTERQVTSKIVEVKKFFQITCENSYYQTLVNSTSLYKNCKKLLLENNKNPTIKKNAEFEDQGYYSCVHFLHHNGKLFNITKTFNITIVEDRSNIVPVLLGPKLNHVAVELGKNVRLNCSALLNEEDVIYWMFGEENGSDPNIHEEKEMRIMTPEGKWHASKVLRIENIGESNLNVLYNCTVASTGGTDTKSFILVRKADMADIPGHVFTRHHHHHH

Row | Binder | ELISA OD
1 | B1 | 1.73 and 1.83
2 | B2 | 2.05 and 2.04
3 | B3 | 2.16 and 2.29
4 | B4 | 2.17 and 2.18
5 | B5 | 1.87 and 1.94
6 | B6 | 1.74 and 1.85
7 | B7 | 1.88 and 1.9

What follows are binders tested against T2, human IL-18R1 and IL-18RAP on IL-18 Reporter HEK 293 Cells (human, UniProt Q13478 19-541; O95256 20-599) (assay: cell-based or functional assay).
T2 sequence (looked up) 1: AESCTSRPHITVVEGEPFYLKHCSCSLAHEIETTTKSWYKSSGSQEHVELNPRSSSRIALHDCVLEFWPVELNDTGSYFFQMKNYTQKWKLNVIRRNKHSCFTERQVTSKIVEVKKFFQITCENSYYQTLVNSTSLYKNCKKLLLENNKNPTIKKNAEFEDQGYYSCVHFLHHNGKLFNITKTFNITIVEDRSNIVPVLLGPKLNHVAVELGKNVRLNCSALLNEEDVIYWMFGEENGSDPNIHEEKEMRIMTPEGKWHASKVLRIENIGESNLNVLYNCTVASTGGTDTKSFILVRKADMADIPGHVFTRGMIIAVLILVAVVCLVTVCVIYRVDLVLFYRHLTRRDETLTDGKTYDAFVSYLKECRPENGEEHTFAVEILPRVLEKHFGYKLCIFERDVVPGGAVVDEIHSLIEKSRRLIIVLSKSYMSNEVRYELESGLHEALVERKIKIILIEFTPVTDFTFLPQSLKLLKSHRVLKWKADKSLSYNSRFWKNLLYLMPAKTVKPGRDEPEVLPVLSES
T2 sequence (looked up) 2: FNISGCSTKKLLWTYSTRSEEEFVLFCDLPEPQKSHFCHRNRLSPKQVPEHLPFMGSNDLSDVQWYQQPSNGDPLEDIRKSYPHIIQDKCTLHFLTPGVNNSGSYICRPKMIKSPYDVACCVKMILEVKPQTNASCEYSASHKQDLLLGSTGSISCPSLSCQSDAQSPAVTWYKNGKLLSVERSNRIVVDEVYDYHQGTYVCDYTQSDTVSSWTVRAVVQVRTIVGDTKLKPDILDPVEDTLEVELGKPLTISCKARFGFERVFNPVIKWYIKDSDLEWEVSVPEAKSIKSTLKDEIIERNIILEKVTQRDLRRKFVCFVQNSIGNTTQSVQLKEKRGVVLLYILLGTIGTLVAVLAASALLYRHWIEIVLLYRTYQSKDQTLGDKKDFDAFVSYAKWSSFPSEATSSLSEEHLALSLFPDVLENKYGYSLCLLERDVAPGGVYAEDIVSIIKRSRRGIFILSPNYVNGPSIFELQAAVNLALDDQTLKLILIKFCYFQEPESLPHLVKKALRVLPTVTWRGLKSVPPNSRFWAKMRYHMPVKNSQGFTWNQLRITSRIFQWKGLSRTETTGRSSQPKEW

Row | Binder | SEAP reporter OD, supernatant 5X | SEAP reporter OD, supernatant 25X
8 | B1 | 1.78 | 1.9
9 | B2 | 1.51 | 1.23
10 | B3 | 1.59 | 1.18
11 | B4 | 1.66 | 1.77
12 | B5 | 1.31 | 1.37
13 | B6 | 1.39 | 0.608
14 | B7 | 1.97 | 1.86
